Source: PMC12373898 (Communications Biology, 2025)

Molecular target: F-actin (pre-assembled, AlexaFluor-labeled) (rabbit, UniProt P68135 1-377, AlexaFluor-labeled actin added to the polymerisation)
Test: TIRF microscopy in vitro reconstitution

B1: His-GFP-Maspin-StrepII (natural protein)
chain: MDALQLANSAFAVDLFKQLCEKEPLGNVLFSPICLSTSLSLAQVGAKGDTANEIGQVLHFENVKDVPFGFQTVTSDVNKLSSFYSLKLIKRLYVDKSLNLSTEFISSTKRPYAKELETVDFKDKLEETKGQINNSIKDLTDGHFENILADNSVNDQTKILVVNAAYFVGKWMKKFSESETKECPFRVNKTDTKPVQMMNMEATFCMGNIDSINCKIIELPFQNKHLSMFILLPKDVEDESTGLEKIEKQLNSESLSQWTNPSTMANAKVKLSIPKFKVEKMIDPKACLENLGLKHIFSEDTSDFSGMSETKGVALSNVIHKVCLEITEDGGDSIEVPGARILQHKDELNADHPFIYIIRHNKTRNIIFFGKFCSP
binding result: binds
